Reference: patent US6339070B1, “Gene construct encoding a heterologous prodrug-activating enzyme and a cell targeting moiety” (Zeneca Limited, priority 1997, dated 2002)
“Also recorded” adds a separate entry of the source.

How the values were obtained:
[1] = Enzyme activity in tumour xenograft samples (methotrexate turnover, HPLC); type: in vivo, athymic nude mice; conditions: 20% recombinant: 80% parental LoVo tumours
Protocol: Recombinant LoVo fusion protein (A5B7-CPG2)2 expressing tumour cells or mixes of recombinant and parental LoVo cells were injected subcutaneously into athymic nude mice (10^7 tumour cells per mouse). The tumour growth rates for both 100% recombinant and 20%: 80% mixes of recombinant:parental LoVo cells were compared to those of parental cell only tumours.
To act as a standard for the assay, a CPG2 enzyme standard curve was prepared in 20% homogenate of normal tumour (parental cell tumour). Subsequent dilutions of samples were made in the same 20% homogenate of normal tumour.
Excised tumour tissue is removed from −80° storage (previously flash frozen in liquid nitrogen) and allowed to thaw. Any residual skin tissue was removed before the tumour was cut up in to small fragments with a scalpel. The tumour tissue was transferred to a preweighed tube and the weight of tumour tissue measured. PBS containing 0.2 mM ZnCl2 solution was added to each tumour sample to give a 20% (w/v) mix, homogenised and placed on ice. Dilutions of sample tumours (in 20% normal tumour homogenate) were prepared e.g. neat, 1/10, 1/20 and 1/40.
For the standard curve, dilutions of CPG2 enzyme were made to the following concentrations to a final volume of 400 μl. Similarly, 400 μl of each of the recombinant tumour sample dilutions were also prepared. After equilibration to 30°, 4 μl of 10 mM methotrexate (MTX) solution was added. The reaction was stopped after exactly 10 minutes by adding 600 μl ice cold methanol+0.2% TFA, centrifuged and the supematant collected. The substrate and product in the supernatant were then separated by HPLC (using a Cation Exchange Column, HICROM™ S5SCX-100 A, mobile phase=60% methanol, 40% 60 mM ammonium formate/0.1% TFA, detection 300 nm). To calculate enzyme activity in the tumour tissue, the standard curve was plotted as units of area of methotrexate metabolite (the standards are such that only 20-30% of the substrate is metabolised so ensuring this is not rate limiting). The test samples were analysed by comparing the unit area of metabolite against the standard curve and then multiplying by the dilution factor. Finally, making the working assumption that 1 ml=1 g the results were multiplied by 5 (as the samples were originally diluted to a 20% homogenate).

[2] = biological target: T1, human carcinoembryonic antigen (CEA) (Homo sapiens, UniProt P06731); assay: CEA-binding ELISA, anti human kappa light chain reporter antibody; conditions: COS-7 transient expression supernatant
T1 sequence (P06731 35-676): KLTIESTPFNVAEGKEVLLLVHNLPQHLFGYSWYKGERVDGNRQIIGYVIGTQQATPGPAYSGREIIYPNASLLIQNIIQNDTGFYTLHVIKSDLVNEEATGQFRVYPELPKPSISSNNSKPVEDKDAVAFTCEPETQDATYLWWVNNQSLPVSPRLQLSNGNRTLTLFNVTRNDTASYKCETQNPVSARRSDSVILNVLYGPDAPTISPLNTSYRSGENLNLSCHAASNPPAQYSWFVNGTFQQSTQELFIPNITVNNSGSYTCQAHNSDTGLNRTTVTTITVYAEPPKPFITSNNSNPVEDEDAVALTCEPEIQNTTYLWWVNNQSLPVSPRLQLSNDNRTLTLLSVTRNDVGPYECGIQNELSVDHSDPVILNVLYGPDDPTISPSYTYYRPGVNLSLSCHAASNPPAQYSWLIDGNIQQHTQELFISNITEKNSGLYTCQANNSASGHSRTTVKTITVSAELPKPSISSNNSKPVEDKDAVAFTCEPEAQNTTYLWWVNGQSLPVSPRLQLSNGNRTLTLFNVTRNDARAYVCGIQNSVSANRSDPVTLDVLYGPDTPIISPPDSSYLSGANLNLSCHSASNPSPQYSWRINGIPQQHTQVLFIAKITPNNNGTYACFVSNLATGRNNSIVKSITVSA
Protocol: For the CEA ELISA each well of a 96 well immunoplate (NUNC MAXISORB™) was coated with 50 ng CEA in 50 mM carbonate/bicarbonate coating buffer pH9.6 (buffer capsules—Sigma C3041) and incubated at 4° overnight. The plate was washed three times with PBS-TWEEN™ (PBS+0.05% TWEEN™ 20) and then blocked 150 μl per well of 1% BSA in PBS-TWEEN™ for 1 hour at room temperature. The plate was washed three times with PBS-TWEEN™, 100 μl of test sample added per well and incubated at room temperature for 2 hours. The plate was washed three times with PBS-TWEEN™, 100 μl per well of a 1/500 dilution of HRPO-labelled goat anti-human kappa antibody (Sigma A 7164) was added in 1% BSA in PBS-TWEEN™ and incubated at room temperature on a rocking platform for at least 1 hour. The plate was washed three times with PBS-TWEEN™ and then once more with PBS. To detect binding, add 100 μl per well of developing solution (one capsule of phosphate-citrate buffer—Sigma P4922—dissolved in 100 ml H2O to which is added one 30 mg tablet o-phenylenediamine dihydrochloride—Sigma P8412) and incubated for up to 15 minutes. The reaction was stopped by adding 75 μl 2M H2SO4, and absorbance read at 490 nm.

CPG2 = conditions: COS-7 transient expression supernatant
[3] = test system: CEA positive LoVo parental line; assay: Cell based ELISA of secreted fusion protein, CEA positive cells; conditions: increasing amounts of added fusion protein, listed as (A5B7-CPG2)2 fusion protein
Protocol: Cells were seeded into 96 well plates (Becton Dickinson Biocoat™ poly-D-Lysine, 35-6461) at a density of 1×10^4 cells per well in 100 μl normal culture media and left about 40 h at 37°. 100 μl of 6% formaldehyde was diluted in DMEM and left for 1 hour at 4°. Plates were centrifuged and washed 3 times in PBS containing 0.05% Tween™ by immersion soaking (first two washes for 2 minutes and the final wash for 5 minutes).
100 μl of doubling dilutions of cell culture supernatant containing fusion protein or chimeric A5B7 anti-CEA were added to each well as appropriate and the plates incubated overnight at 4°. The plates were washed as described above and, in the case of chimaeric fusion proteins. 100 μl of 1:1000 dilution of HRP labelled anti-human kappa antibody (Sigma A-7164) was added and incubated for 2 hours at room temperature (an anti-CPG2 detection methodology can be used in the case of murine scFv fusion proteins). The plates were washed as described above and HRP detected using OPD substrate (Sigma P-8412). Colour was allowed to develop for about 5 min, stopped with 75 μl per well of 2M H2SO4 and OD read at 490 nm.
In the case of the (A5B7-CPG2)2 fusion protein, material was produced in the supernatant from recombinant Colo32ODM tumour cells (CEA-ve). The fusion protein content was measured by use of the CEA ELISAs described above. […]

B1: (A5B7 Fab-CPG2)2 fusion protein: chimaeric A5B7 anti-CEA Fab, heavy chain Fd linked via (G4S)3 linker to CPG2 R6, dimerised through CPG2 (antibody)
heavy: EVKLVESGGGLVQPGGSLRLSCATSGFTFTDYYMNWVRQPPGKALEWLGFIGNKANGYTTEYSASVKGRFTISRDKSQSILYLQMNTLRAEDSATYYCTRDRGLRFYFDYWGQGTTLTVSSASTKGPSVFPLAPCSRSTSESTAALGCLVKDYFPEPVTVSWNSGALTSGVHTFPAVLQSSGLYSLSSVVTVPSSNFGTQTYTCNVDHKPSNTKVDKTVGGGGSGGGGSGGGGSQKRDNVLFQAATDEQPAVIKTLEKLVNIETGTGDAEGIAAAGNFLEAELKNLGFTVTRSKSAGLVVGDNIVGKIKGRGGKNLLLMSHMDTVYLKGILAKAPFRVEGDKAYGPGIADDKGGNAVILHTLKLLKEYGVRDYGTITVLFNTDEEKGSFGSRDLIQEEAKLADYVLSFEPTSAGDEKLSLGTSGIAYVQVQITGKASHAGAAPELGVNALVEASDLVLRTMNIDDKAKNLRFQWTIAKAGQVSNIIPASATLNADVRYARNEDFDAAMKTLEERAQQKKLPEADVKVIVTRGRPAFNAGEGGKKLVDKAVAYYKEAGGTLGVEERTGGGTDAAYAALSGKPVIESLGLPGFGYHSDKAEYVDISAIPRRLYMAARLIMDLGAGK
light: QTVLSQSPAILSASPGEKVTMTCRASSSVTYIHWYQQKPGSSPKSWIYATSNLASGVPARFSGSGSGTSYSLTISRVEAEDAATYYCQHWSSKPPTFGGGTKLEIKRTVAAPSVFIFPPSDEQLKSGTASVVCLLNNFYPREAKVQWKVDNALQSGNSQESVTEQDSKDSTYSLSSTLTLSKADYEKHKVYACEVTHQGLSSPVTKSFNRGEC
average enzyme activity in tumour ([1]; day 5): 0.26 U/g
range of enzyme activity in tumour ([1]; day 5): 0.18-0.36 U/g
average enzyme activity in tumour ([1]; day 12): 0.65 U/g
range of enzyme activity in tumour ([1]; day 12): 0.19-1.1 U/g
CEA binding in anti-CEA ELISA [2]: binding of protein at levels commensurate with a bivalent A5B7 antibody molecule
CPG2 enzyme activity in cell supernatant (CPG2): CPG2 enzyme activity to be present in the cell supernatant
binding to CEA positive cells (OD 490 nm) [3]: increased levels of binding with increasing amounts of added fusion protein; also recorded: binds specifically to a CEA positive cell line in a dose dependant manner
